Data published in US20250145673A1 (AFFILOGIC, published 2025).
Changes are numbered by the printed parent chain.

B1: polypeptide comprising the amino acid sequence of SEQ ID NO: 33 (designed binder)
chain: MVKVKFAATGEEKEVETSKIANVYRVGKDVLFSYDDQGKIGWGYVSEKDAPKELLDLLARAEREK
B2: polypeptide comprising the amino acid sequence of SEQ ID NO: 34 (designed binder)
chain: B1 chain with A7D, A21S, N22A, V26T
B3: polypeptide having the amino acid sequence of SEQ ID NO: 27 (designed binder)
chain: MVKVKFEATGEEKEVDTSKIYQVYRSGKEVLFTYDDNGKTGWGYVSEKDAPKELLDMLARAEREK
notes: Sac7d variant (Nanofitin); also called parental clone of cluster 6; Nanofitin
B4: Fab NF-F (Fab fusion protein comprising SEQ ID NO: 63 and SEQ ID NO: 35) (other)
heavy: EVQLVESGGGLVQPGGSLRLSCAASGYDFTHYGMNWVRQAPGKGLEWVGWINTYTGEPTYAADFKRRFTFSLDTSKSTAYLQMNSLRAEDTAVYYCAKYPYYYGTSHWYFDVWGQGTLVTVSSASTKGPSVFPLAPSSKSTSGGTAALGCLVKDYFPEPVTVSWNSGALTSGVHTFPAVLQSSGLYSLSSVVTVPSSSLGTQTYICNVNHKPSNTKVDKKVEPKSCDKTHLGSGGSGSAGSGSGGSVKVKFVFSGEEKEVETSKIKWVLRWGKAVGFKYDDQGKIGYGFVAEKDAPKELLDLLARAEREKGSGGSGSAGSGSGGSVKVKFDATGEEKEVETSKISAVYRTGKDVLFSYDDQGKIGWGYVSEKDAPKELLDLLARAERE
light: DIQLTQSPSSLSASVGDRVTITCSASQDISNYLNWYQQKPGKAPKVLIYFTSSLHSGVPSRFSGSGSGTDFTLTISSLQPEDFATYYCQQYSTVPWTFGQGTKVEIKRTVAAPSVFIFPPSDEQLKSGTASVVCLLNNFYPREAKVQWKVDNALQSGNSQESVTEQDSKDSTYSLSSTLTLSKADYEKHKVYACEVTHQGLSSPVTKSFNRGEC
B5: Fab NF-H (Fab fusion protein comprising SEQ ID NO: 63 and SEQ ID NO: 62) (other)
heavy: B4 heavy
light: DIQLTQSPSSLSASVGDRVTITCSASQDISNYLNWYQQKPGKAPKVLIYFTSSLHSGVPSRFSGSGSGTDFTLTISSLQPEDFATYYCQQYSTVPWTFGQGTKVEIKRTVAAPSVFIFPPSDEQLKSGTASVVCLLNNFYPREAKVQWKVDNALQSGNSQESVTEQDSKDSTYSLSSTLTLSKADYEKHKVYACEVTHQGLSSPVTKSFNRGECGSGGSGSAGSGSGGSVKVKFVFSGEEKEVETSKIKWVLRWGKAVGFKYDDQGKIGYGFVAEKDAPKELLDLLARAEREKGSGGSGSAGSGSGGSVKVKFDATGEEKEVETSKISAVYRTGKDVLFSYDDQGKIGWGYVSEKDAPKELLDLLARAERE
B6: Fab NF-I (Fab fusion protein comprising SEQ ID NO: 36 and SEQ ID NO: 60) (other)
heavy: EVQLVESGGGLVQPGGSLRLSCAASGYDFTHYGMNWVRQAPGKGLEWVGWINTYTGEPTYAADFKRRFTFSLDTSKSTAYLQMNSLRAEDTAVYYCAKYPYYYGTSHWYFDVWGQGTLVTVSSASTKGPSVFPLAPSSKSTSGGTAALGCLVKDYFPEPVTVSWNSGALTSGVHTFPAVLQSSGLYSLSSVVTVPSSSLGTQTYICNVNHKPSNTKVDKKVEPKSCDKTHL
light: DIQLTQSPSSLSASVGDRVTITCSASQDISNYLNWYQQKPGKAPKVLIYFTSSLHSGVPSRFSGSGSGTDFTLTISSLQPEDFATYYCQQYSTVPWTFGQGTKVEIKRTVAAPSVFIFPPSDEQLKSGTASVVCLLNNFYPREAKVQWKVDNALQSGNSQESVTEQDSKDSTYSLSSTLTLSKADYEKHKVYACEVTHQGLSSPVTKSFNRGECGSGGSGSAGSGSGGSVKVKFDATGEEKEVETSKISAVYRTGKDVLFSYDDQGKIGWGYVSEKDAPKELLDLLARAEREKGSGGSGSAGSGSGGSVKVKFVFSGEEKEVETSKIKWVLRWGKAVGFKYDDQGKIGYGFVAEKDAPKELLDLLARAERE
B7: Fab NF-E (Fab fusion protein comprising SEQ ID NO: 59 and SEQ ID NO: 57) (other)
heavy: EVQLVESGGGLVQPGGSLRLSCAASGYDFTHYGMNWVRQAPGKGLEWVGWINTYTGEPTYAADFKRRFTFSLDTSKSTAYLQMNSLRAEDTAVYYCAKYPYYYGTSHWYFDVWGQGTLVTVSSASTKGPSVFPLAPSSKSTSGGTAALGCLVKDYFPEPVTVSWNSGALTSGVHTFPAVLQSSGLYSLSSVVTVPSSSLGTQTYICNVNHKPSNTKVDKKVEPKSCDKTHLGSGGSGSAGSGSGGSVKVKFVFSGEEKEVETSKIKWVLRWGKAVGFKYDDQGKIGYGFVAEKDAPKELLDLLARAERE
light: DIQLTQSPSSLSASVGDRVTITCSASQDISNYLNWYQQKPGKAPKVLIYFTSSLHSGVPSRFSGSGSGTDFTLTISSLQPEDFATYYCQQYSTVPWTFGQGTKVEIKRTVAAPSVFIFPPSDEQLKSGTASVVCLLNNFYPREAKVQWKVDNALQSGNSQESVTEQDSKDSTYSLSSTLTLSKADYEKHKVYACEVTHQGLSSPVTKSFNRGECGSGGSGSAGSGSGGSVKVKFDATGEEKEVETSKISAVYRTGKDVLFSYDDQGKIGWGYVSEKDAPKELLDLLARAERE
notes: Signal peptide cleaved off prior to secretion
B8: Fab NF-J (Fab fusion protein comprising SEQ ID NO: 58 and SEQ ID NO: 62) (other)
heavy: EVQLVESGGGLVQPGGSLRLSCAASGYDFTHYGMNWVRQAPGKGLEWVGWINTYTGEPTYAADFKRRFTFSLDTSKSTAYLQMNSLRAEDTAVYYCAKYPYYYGTSHWYFDVWGQGTLVTVSSASTKGPSVFPLAPSSKSTSGGTAALGCLVKDYFPEPVTVSWNSGALTSGVHTFPAVLQSSGLYSLSSVVTVPSSSLGTQTYICNVNHKPSNTKVDKKVEPKSCDKTHLGSGGSGSAGSGSGGSVKVKFDATGEEKEVETSKISAVYRTGKDVLFSYDDQGKIGWGYVSEKDAPKELLDLLARAERE
light: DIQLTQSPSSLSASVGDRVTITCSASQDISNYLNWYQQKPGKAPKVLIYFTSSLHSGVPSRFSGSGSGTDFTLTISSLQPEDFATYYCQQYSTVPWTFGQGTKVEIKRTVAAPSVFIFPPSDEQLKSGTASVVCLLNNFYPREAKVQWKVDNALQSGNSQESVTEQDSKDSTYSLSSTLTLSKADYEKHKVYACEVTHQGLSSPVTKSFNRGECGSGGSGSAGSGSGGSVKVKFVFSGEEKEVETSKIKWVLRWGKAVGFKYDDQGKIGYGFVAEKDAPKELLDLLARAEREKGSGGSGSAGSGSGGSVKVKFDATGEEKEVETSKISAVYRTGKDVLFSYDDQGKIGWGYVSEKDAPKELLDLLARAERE
B9: Fab NF-G (Fab fusion protein comprising SEQ ID NO: 61 and SEQ ID NO: 60) (other)
heavy: EVQLVESGGGLVQPGGSLRLSCAASGYDFTHYGMNWVRQAPGKGLEWVGWINTYTGEPTYAADFKRRFTFSLDTSKSTAYLQMNSLRAEDTAVYYCAKYPYYYGTSHWYFDVWGQGTLVTVSSASTKGPSVFPLAPSSKSTSGGTAALGCLVKDYFPEPVTVSWNSGALTSGVHTFPAVLQSSGLYSLSSVVTVPSSSLGTQTYICNVNHKPSNTKVDKKVEPKSCDKTHLGSGGSGSAGSGSGGSVKVKFDATGEEKEVETSKISAVYRTGKDVLFSYDDQGKIGWGYVSEKDAPKELLDLLARAEREKGSGGSGSAGSGSGGSVKVKFVFSGEEKEVETSKIKWVLRWGKAVGFKYDDQGKIGYGFVAEKDAPKELLDLLARAERE
light: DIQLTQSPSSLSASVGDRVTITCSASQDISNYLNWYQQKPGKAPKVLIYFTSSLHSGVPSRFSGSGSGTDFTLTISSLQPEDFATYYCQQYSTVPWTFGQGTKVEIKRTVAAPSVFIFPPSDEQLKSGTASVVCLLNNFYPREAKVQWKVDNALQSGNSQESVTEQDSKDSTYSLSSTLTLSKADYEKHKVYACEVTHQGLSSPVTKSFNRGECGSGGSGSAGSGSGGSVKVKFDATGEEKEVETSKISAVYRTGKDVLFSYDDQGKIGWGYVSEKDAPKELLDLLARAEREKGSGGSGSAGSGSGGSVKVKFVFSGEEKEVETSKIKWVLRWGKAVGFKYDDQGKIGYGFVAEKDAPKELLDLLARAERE

Target: T1, complement component 3 (C3) (UniProt P01024 23-1663)
T1 construct: Purified bought protein; native C3 is a disulfide-linked two-chain protein made from one precursor
T1 sequence (P01024 23-1663 limits assumed): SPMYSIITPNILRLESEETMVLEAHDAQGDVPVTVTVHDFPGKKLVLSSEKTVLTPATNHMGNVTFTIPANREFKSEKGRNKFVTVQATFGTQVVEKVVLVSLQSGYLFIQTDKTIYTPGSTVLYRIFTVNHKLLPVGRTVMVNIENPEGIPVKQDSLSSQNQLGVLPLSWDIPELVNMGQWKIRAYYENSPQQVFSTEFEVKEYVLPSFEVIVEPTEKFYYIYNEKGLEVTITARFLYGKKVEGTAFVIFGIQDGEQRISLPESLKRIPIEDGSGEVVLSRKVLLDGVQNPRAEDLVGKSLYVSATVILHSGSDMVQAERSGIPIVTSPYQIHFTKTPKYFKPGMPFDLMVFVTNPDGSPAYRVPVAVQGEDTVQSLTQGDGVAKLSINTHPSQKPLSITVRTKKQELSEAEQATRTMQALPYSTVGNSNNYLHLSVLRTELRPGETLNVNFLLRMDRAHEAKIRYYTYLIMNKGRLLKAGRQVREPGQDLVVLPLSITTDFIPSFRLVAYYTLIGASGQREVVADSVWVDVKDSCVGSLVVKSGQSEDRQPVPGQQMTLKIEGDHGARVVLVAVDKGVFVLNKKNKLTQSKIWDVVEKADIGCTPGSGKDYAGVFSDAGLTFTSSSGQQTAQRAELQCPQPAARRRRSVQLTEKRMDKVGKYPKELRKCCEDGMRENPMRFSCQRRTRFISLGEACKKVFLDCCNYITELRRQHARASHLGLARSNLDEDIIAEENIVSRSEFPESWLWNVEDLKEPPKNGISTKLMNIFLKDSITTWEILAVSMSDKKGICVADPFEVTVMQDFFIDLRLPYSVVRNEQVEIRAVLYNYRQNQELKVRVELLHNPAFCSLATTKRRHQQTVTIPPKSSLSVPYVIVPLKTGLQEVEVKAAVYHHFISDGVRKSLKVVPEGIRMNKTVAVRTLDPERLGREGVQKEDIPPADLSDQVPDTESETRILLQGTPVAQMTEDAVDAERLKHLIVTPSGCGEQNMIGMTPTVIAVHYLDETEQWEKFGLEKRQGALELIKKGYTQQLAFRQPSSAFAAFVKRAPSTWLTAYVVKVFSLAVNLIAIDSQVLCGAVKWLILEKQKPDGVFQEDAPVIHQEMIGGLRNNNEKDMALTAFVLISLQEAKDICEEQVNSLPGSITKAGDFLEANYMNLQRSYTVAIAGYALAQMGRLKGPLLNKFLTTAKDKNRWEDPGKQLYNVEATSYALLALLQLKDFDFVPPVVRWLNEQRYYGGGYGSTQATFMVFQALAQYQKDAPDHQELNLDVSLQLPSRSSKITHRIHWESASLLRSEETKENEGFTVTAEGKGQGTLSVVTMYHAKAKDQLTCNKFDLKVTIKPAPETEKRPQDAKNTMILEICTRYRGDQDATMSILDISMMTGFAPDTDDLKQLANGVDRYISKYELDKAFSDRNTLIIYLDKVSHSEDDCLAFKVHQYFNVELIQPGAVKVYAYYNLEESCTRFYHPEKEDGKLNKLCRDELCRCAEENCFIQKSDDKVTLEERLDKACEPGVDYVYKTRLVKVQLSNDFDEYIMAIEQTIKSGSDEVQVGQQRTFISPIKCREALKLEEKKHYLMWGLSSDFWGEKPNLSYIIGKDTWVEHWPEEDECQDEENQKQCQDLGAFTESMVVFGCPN
Experiment: SPR, target amine-coupled to chip, single cycle kinetics, 1:1 Langmuir fit
Procedure: (§1) In summary, ligands were immobilized under the following conditions: 25° C. on a Sierra Sensors HCA (CM5), Running Buffer of PBST (10 mM Phosphate Buffer pH 7.4, 150 mM NaCl, 0.05% Tween-20; pH 7.4), amine coupling Immobilization Buffer of 10 mM NaOAc pH 4.0, activation with EDC/NHS 6 minutes, immobilization for 1 minute, and blocking with 1 M ethanolamine.
An 8-point, 3-fold serial dilution assay was performed in duplicate for the polypeptides described in Example 1 starting at either 20 nM, 50 nM, or 200 nM.
(§2) Sensorgrams were analyzed using Sierra Sensors Analyzer software version 3.1.33 with a double reference to determine the interaction parameters ka, kd, and KD. The reference channel was first subtracted from the ligand channel as the first reference. The internal blank injections were set to closest blank after injection based on the method. The kd was calculated for the top concentration by fitting the off-rate part of the curve. The kd was then set to global constant for fitting rest of the curves. Rmax was fit locally for each individual curve since the number of available binding sites changed after each injection. Binding data was fit to a 1:1 Langmuir model.

Binder	Kd
B1	0.22 nM
B2	0.66 nM
B3	1.94 nM

Target: T1, complement component 3 (C3)
Experiment: ITC; ITC, not SPR

Binder	Kd
B3	2.1 nM

Target: T1, complement component 3 (C3)
Experiment: cell-based or functional assay

Binder	IC50 (nM) Alternative Pathway (Wieslab® assay)	IC50 (nM) Classical Pathway (Wieslab® assay)
B4	273 nM	78 nM
B5	123 nM	47 nM
B6	170 nM	63 nM
B7	246 nM	65 nM
B8	121 nM	48 nM

Target: T1, complement component 3 (C3)
Experiment: SPR, single cycle kinetics, 1:1 Langmuir fit; text says C3 (Cat #A113c) was immobilised, the column's head prints 'Binding to C3b'
Procedure: C3 binding, VEGF binding, HSA binding, and equilibrium dissociation constant (KD) measurements were determined by Surface Plasmon Resonance (SPR) using the Sierra SPR-23 instrument. C3 protein was obtained from Complement Technology, Inc. (Cat #A113c). VEGF protein was obtained from Sino Biologicals, Inc. HSA protein was obtained from Sigma-Aldrich, Inc. (Cat #A3782). The Fab fusion proteins described in Example 8 were stored each at 1 mg/mL in PBST, pH 7.4.
as §1, with “5.0,” for “4.0,”, “7” for “6”, “2 minutes,” for “1 minute,”, “ethanolamine for 7 minutes.” for “ethanolamine.”
as §2, with “An 8-point, 3-fold serial dilution assay was performed in duplicate for the Fab fusion proteins described in Example 8 starting at 100 nM. Sensorgrams” for “Sensorgrams”, “Analyzer” for “Analyzer software version 3.1.33”

Binder	Kd
B4	4.09 nM
B5	0.13 nM
B9	0.21 nM
B6	1.42 nM
B7	1.31 nM
B8	0.14 nM

Target: T1, complement component 3 (C3)
Experiment: ITC, polypeptide titrated into C3; fit box in the lower panel

Binder	Ka
B3	4.74e+08 M⁻¹

Target: T1, complement component 3 (C3)
Experiment: cell-based or functional assay
Remark: another data set of the same source

Binder	IC50 (nM) Alternative (ELISA-based complement activation assay)	IC50 (nM) Classical (ELISA-based complement activation assay)
B1	447 nM	63 nM
B2	286 nM	79 nM
B3	700 nM	743 nM

Target: T1, complement component 3 (C3)
Experiment: ITC, polypeptide titrated into C3; fit box in the lower panel
Remark: another data set of the same source

Binder	Ka
B1	5.36e+08 M⁻¹

Target: T1, complement component 3 (C3)
Experiment: ITC

Binder	Kd
B1	1.9 nM
B2	1.3 nM

Target: human serum albumin (HSA) (human, UniProt P02768 25-609)
Sequence (P02768 25-609 limits assumed): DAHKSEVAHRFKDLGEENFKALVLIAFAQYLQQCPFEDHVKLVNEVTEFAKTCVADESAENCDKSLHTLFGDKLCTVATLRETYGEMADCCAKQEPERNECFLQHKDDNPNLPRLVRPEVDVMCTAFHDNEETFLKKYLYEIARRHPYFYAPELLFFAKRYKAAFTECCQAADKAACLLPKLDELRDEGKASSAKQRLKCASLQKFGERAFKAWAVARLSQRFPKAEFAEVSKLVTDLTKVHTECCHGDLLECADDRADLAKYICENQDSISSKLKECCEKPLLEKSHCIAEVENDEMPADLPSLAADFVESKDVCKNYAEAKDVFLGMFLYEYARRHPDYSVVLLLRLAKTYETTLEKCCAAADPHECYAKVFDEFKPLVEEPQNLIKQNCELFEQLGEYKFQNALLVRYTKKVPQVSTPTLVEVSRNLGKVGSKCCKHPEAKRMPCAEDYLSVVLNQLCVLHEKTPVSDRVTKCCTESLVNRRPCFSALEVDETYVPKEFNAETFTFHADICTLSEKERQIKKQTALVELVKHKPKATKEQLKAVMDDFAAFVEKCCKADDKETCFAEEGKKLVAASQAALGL
Experiment: SPR, HSA amine-coupled to chip, single cycle kinetics, 1:1 Langmuir fit
Procedure: C3, VEGF, and HSA were placed onto Spots B, C, and D, respectively, across all 8 channels to test for the binding of the supplied analytes. Spot A was used as a reference spot. The conditioned biosensor chip was chemically activated with EDC/NHS. Ligands were then injected onto the activated surface to allow for immobilization. After immobilization, 1 M ethanolamine was injected to block any remaining reactive carboxyl groups in the carboxymethylated dextran surface.
as §1, with “5.0,” for “4.0,”, “7” for “6”, “2 minutes,” for “1 minute,”, “ethanolamine for 7 minutes.” for “ethanolamine.”
as §2, with “An 8-point, 3-fold serial dilution assay was performed in duplicate for the Fab fusion proteins described in Example 8 starting at 100 nM. Sensorgrams” for “Sensorgrams”, “Analyzer” for “Analyzer software version 3.1.33”

Binder	Kd
B4	90.6 nM
B5	0.1 nM
B9	16.9 nM
B6	8.9 nM
B7	3 nM
B8	16.9 nM

Target: T1, complement component 3 (C3)
Experiment: ITC, binder titrated into target

Binder	-TΔS	Kd	N	ΔG	ΔH
B1	6.6 kcal/mol	1.9 nM	0.94	-11.9 kcal/mol	-18.5 kcal/mol
B2	16.7 kcal/mol	1.3 nM	0.85	-12.1 kcal/mol	-28.8 kcal/mol
B3	23.4 kcal/mol	2.1 nM	0.98	-11.8 kcal/mol	-35.2 kcal/mol
